Experimental data published in patent US20240352128A1 (NANJING GENSCRIPT BIOTECH, published 2024).
Residue numbers refer to the chain shown, from its start.

B1: pTT5-AR8820-1.1mIgG1Fc (Fc fusion)
heavy: QVQLVESGGGVVQPGGSLRLSCAASGSSISRYAMAWYRQAPGKGRELVAVVRITGSPIYADFVGGRFTISRDNSKNTLYLQMNSLRAEDTAVYYCATGNFNTYTRRYSPSETWGKGTTVTVSSVPRDCGCKPCICTVPEVSSVFIFPPKPKDVLTITLTPKVTCVVVDISKDDPEVQFSWFVDDVEVHTAQTQPREEQFNSTFRSVSELPIMHQDWLNGKEFKCRVNSAAFPAPIEKTISKTKGRPKAPQVYTIPPPKEQMAKDKVSLTCMITDFFPEDITVEWQWNGQPAENYKNTQPIMDTDGSYFVYSKLNVQKSNWEAGNTFTCSVLHEGLHNHHTEKSLSHSPGK
notes: As m24
B2: pTT5-AR8820-2.1mIgG1Fc (Fc fusion)
VHH-Fc: B1 heavy with Q1E, V11L, V12I, A49S, K115Q
notes: As m24
B3: pTT5-AR8820-2.3mIgG1Fc (Fc fusion)
VHH-Fc: B1 heavy with Q1E, V11L, V12I, A49S, A96N, T97R, K115Q
notes: As m24
B4: pTT5-AR8820-3.1 mIgG1Fc (Fc fusion)
heavy: B1 heavy with Q1E, V11L, S74A, T77S, K115Q, T118L
notes: As m24
B5: pTT5-AR8820-1.2mIgG1Fc (Fc fusion)
heavy: B1 heavy with L47W
notes: As m24
B6: pTT5-AR8820-3.3 mIgG1Fc (Fc fusion)
VHH-Fc: B1 heavy with Q1E, V11L, S74A, T77S, A96N, K115Q, T118L
notes: As m24
B7: pTT5-AR8804-3.2 mIgG1Fc (Fc fusion)
heavy: B1 heavy with I29V, L47W, S56I, G64K
notes: As m24
B8: pTT5-AR8820-1.3mIgG1Fc (Fc fusion)
heavy: B1 heavy with A96N
notes: As m24
B9: pTT5-AR8804-3.3mIgG1Fc (Fc fusion)
heavy: B1 heavy with I29V, S56I, G64K, A96N
notes: As m24

Molecular target: T1, cynomolgus monkey CD16a on HEK293 cells expressing cyno monkey CD16a (constructed by Genscript) (cynomolgus monkey, UniProt Q8SPW2 17-254)
T1 construct: whole, on cells; also called cynomolgus monkey CD16a protein
T1 sequence (Q8SPW2 17-254): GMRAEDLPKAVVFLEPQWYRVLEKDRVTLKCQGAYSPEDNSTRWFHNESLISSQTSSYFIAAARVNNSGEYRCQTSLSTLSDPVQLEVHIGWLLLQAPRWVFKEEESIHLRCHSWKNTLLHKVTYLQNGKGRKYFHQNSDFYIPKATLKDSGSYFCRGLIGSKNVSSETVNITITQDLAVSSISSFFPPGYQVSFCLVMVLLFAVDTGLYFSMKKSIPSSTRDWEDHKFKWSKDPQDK
Assay: flow cytometry on HEK293 cells expressing cyno monkey CD16a
Method: To determine the cross-reactions of antibody products, HEK293 cells expressing cyno monkey CD16a (constructed by Genscript) were harvested and incubated respectively with serially diluted anti-CD16a humanized sdAb-mIgG1Fcs (max. concentration: 100 nM, 3-fold dilution), followed by fluorophore (iFluor 647)-labeled goat anti mouse IgG (H+L) secondary antibodies (Jackson immuno research; catalog #: 115-605-062). The samples were then analyzed with flow cytometry. Raw data was plotted with GraphPad Prism v6.02 software with four parameters, best-fit values program to analyze the EC₅₀. The molecules of pTT5-AR8804-3.2 mIgG1Fc, pTT5-AR8804-3.3mIgG1Fc, pTT5-AR8820-1.1mIgG1Fc, pTT5-AR8820-1.2mIgG1Fc, pTT5-AR8820-1.3mIgG1Fc, pTT5-AR8820-2.1mIgG1Fc, pTT5-AR8820-2.3mIgG1Fc, pTT5-AR8820-3.1mIgG1Fc and pTT5-AR8820-3.3 mIgG1Fc manifested good cross-reaction with cynomolgus monkey CD16a protein (FIG. 13).

Binding result, binds:
B1, B2, B3, B4, B5, B6, B7, B8, B9
